According to US20210054088A1 (Eli Lilly, published 2021):
Where two headings read alike, the source gives them in different places.

What was measured:
[1] = biological target: T1, cynomolgus monkey CD137 on stably transfected human 293 cells (cynomolgus monkey, UniProt A9YYE7 24-254); assay: flow cytometry on 293 cells expressing cynomolgus monkey CD137, antibody at 0.5 micrograms/mL; MFI of antibody / MFI of control IgG
T1 construct: whole, on cells; also called Cyno-CD137

[2] = biological target: human CD137 on stably transfected human 293 cells (human, UniProt Q07011 24-255); assay: cell-based or functional assay
human CD137 on stably transfected human 293 cells, sequence (Q07011 24-255 limits assumed): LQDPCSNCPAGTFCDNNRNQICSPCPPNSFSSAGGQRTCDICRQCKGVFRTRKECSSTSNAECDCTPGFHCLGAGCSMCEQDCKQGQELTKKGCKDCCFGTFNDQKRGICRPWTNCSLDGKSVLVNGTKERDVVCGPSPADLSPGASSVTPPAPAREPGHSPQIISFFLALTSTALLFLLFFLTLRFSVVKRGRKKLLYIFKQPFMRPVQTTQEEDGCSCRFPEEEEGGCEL

[3] = biological target: T2, Recombinant human extracellular CD137-Fc protein (R&D Systems) (human, UniProt Q07011 24-186); assay: SPR (Biacore T200), CD137-Fc immobilised, 25° C., 1:1 Langmuir fit
T2 construct: Bought protein; also called human CD137-Fc; not shown: Fc part of the bought fusion protein

FcγRIIa(H) = biological target: T3, FcγRIIa(H) (UniProt P12318 36-218, limits assumed); assay: MSD assay, Fcγ receptor coated
T3 sequence (looked up): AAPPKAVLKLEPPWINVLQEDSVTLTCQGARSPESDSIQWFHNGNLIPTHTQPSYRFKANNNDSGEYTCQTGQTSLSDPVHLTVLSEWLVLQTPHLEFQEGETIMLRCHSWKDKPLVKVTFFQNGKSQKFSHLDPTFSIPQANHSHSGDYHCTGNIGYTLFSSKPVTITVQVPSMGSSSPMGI

FcγRI = FcγRI (UniProt P12314 16-288, limits assumed); assay: MSD assay, Fcγ receptor coated
FcγRI, sequence (P12314 16-288 limits assumed): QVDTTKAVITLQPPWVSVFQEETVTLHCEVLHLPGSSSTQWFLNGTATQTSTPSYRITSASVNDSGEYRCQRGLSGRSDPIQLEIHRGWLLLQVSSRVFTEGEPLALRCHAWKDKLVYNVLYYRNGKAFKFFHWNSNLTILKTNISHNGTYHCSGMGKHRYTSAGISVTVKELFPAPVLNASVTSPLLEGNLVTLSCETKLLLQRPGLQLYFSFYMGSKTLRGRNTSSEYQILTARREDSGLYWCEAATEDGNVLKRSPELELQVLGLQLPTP

FcγRIIb = biological target: T4, FcγRIIb (UniProt P31994 43-217, limits assumed); assay: MSD assay, Fcγ receptor coated
T4 sequence (looked up): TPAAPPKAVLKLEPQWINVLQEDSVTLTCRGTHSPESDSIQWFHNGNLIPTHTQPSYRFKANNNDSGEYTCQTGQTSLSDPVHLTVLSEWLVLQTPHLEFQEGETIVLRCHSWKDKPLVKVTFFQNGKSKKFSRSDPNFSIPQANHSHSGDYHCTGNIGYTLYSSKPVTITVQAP

FcγRIIIa(F) = FcγRIIIa(F) (UniProt P08637 17-208, limits assumed); assay: MSD assay, Fcγ receptor coated
FcγRIIIa(F), sequence (P08637 17-208 limits assumed): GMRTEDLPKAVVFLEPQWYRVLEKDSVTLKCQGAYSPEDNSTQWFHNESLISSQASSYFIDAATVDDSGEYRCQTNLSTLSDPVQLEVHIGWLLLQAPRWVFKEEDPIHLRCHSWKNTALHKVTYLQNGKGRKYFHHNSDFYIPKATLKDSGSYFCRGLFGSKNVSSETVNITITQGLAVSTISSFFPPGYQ

FcγRIIIa(V) = FcγRIIIa(V) (UniProt P08637 17-208, limits assumed); assay: MSD assay, Fcγ receptor coated
FcγRIIIa(V), sequence (P08637 17-208 F176V limits assumed): as the sequence (P08637 17-208 limits assumed) above, with F160V counted along it

[4] = biological target: T5, human CD137-ECD-C121S-Fc mutant K114E (human, UniProt Q07011 24-186); assay: point ELISA, coated CD137-Fc mutant; mean of absorbance normalised to wild type over eight concentrations;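 also: antibody binding to plate-adsorbed CD137-Fc variants, detected with an HRP-labelled anti-Fab secondary antibody and TMB colour development read as absorbance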
T5 construct: not shown: Fc part
T5 sequence (Q07011 24-186 K114E/C121S): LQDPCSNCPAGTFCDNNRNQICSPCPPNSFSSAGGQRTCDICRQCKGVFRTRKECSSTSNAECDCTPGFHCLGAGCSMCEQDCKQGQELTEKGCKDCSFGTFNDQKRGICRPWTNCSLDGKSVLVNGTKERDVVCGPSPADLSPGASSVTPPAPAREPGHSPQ

[5] = biological target: T6, human CD137-ECD-C121S-Fc mutant D63N (human, UniProt Q07011 24-186); assay: as above
T6 construct: not shown: Fc part
T6 sequence (Q07011 24-186 D63N/C121S): as the sequence (Q07011 24-186 K114E/C121S) above, with D40N, E91K counted along it

[6] = biological target: T7, human CD137-ECD-C121S-Fc mutant A97P (human, UniProt Q07011 24-186); assay: as above
T7 construct: not shown: Fc part
T7 sequence (Q07011 24-186 A97P/C121S): as the sequence (Q07011 24-186 K114E/C121S) above, with A74P, E91K counted along it

[7] = biological target: T8, human CD137-ECD-C121S-Fc mutant G98Q (human, UniProt Q07011 24-186); assay: as above
T8 construct: not shown: Fc part
T8 sequence (Q07011 24-186 G98Q/C121S): as the sequence (Q07011 24-186 K114E/C121S) above, with G75Q, E91K counted along it

[8] = biological target: T9, human CD137-ECD-C121S-Fc mutant Q104K (human, UniProt Q07011 24-186); assay: as above
T9 construct: not shown: Fc part
T9 sequence (Q07011 24-186 Q104K/C121S): as the sequence (Q07011 24-186 K114E/C121S) above, with Q81K, E91K counted along it

[9] = biological target: T10, human CD137-ECD-C121S-Fc mutant K115Q (human, UniProt Q07011 24-186); assay: as above
T10 construct: not shown: Fc part
T10 sequence (Q07011 24-186 K115Q/C121S): as the sequence (Q07011 24-186 K114E/C121S) above, with E91K, K92Q counted along it

[10] = biological target: T11, human CD137-ECD-C121S-Fc mutant Q67R (human, UniProt Q07011 24-186); assay: as above
T11 construct: not shown: Fc part
T11 sequence (Q07011 24-186 Q67R/C121S): as the sequence (Q07011 24-186 K114E/C121S) above, with Q44R, E91K counted along it

[11] = biological target: T12, human CD137-ECD-C121S-Fc mutant N42S (human, UniProt Q07011 24-186); assay: as above
T12 construct: not shown: Fc part
T12 sequence (Q07011 24-186 N42S/C121S): as the sequence (Q07011 24-186 K114E/C121S) above, with N19S, E91K counted along it

[12] = biological target: T13, human CD137-ECD-C121S-Fc mutant S100T (human, UniProt Q07011 24-186); assay: as above
T13 construct: not shown: Fc part
T13 sequence (Q07011 24-186 S100T/C121S): as the sequence (Q07011 24-186 K114E/C121S) above, with S77T, E91K counted along it

[13] = biological target: T14, human CD137-ECD-C121S-Fc mutant M101R (human, UniProt Q07011 24-186); assay: as above
T14 construct: not shown: Fc part
T14 sequence (Q07011 24-186 M101R/C121S): as the sequence (Q07011 24-186 K114E/C121S) above, with M78R, E91K counted along it

[14] = biological target: T15, human CD137-ECD-C121S-Fc mutant P27L (human, UniProt Q07011 24-186); assay: as above
T15 construct: not shown: Fc part
T15 sequence (Q07011 24-186 P27L/C121S): as the sequence (Q07011 24-186 K114E/C121S) above, with P4L, E91K counted along it

[15] = biological target: T16, human CD137-ECD-C121S-Fc mutant Q67V (human, UniProt Q07011 24-186); assay: as above
T16 construct: not shown: Fc part
T16 sequence (Q07011 24-186 Q67V/C121S): as the sequence (Q07011 24-186 K114E/C121S) above, with Q44V, E91K counted along it

[16] = biological target: T17, human CD137-ECD-C121S-Fc mutant G98K (human, UniProt Q07011 24-186); assay: as above
T17 construct: not shown: Fc part
T17 sequence (Q07011 24-186 G98K/C121S): as the sequence (Q07011 24-186 K114E/C121S) above, with G75K, E91K counted along it

Human C1q = Human C1q (human, UniProt P02745 23-245; P02746 28-253; P02747 29-245); assay: ELISA, antibody coated, human C1q added
Human C1q, sequence (P02745 23-245 limits assumed, chain 1 of 3): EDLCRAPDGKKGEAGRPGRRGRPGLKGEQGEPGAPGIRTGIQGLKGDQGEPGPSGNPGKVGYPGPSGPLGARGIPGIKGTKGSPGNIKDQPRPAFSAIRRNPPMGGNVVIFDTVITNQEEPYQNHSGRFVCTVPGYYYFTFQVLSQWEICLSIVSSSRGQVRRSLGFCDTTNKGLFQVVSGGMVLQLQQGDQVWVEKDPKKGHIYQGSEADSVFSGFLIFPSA
Human C1q, sequence (P02746 28-253 limits assumed, chain 2 of 3): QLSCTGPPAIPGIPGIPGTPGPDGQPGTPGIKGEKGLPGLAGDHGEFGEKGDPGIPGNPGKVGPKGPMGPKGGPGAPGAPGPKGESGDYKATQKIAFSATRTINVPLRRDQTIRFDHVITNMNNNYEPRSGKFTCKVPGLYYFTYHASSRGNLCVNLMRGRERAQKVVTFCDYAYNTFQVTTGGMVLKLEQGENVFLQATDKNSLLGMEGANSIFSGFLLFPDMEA
Human C1q, sequence (P02747 29-245 limits assumed, chain 3 of 3): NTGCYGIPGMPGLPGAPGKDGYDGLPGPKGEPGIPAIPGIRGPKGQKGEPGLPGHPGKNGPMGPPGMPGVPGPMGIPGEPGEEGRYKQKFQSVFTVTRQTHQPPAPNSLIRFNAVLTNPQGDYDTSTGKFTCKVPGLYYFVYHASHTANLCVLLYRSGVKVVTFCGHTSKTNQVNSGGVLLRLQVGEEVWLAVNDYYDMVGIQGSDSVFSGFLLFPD

[17] = biological target: T18, hCD137** ((human CD137 amino acids 22-164, ΔC121S)-AAA-FLAG) (human, UniProt Q07011 22-164); assay: ELISA, coated hCD137**, anti-Fab detection
T18 construct: not shown: FLAG tag
T18 chain: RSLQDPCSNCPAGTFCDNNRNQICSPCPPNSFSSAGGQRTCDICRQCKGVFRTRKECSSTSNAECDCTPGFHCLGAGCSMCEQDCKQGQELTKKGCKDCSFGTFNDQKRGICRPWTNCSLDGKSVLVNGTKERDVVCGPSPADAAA

[18] = biological target: T2, Recombinant human extracellular …; assay: ELISA, coated human CD137-Fc
[19] = biological target: T19, human CD137-ECD-C121S-Fc mutant I132V (human, UniProt Q07011 24-186); assay: point ELISA, coated CD137-Fc mutant; mean of absorbance normalised to wild type over eight concentrations
T19 construct: not shown: Fc part
T19 sequence (Q07011 24-186 C121S/I132V): as the sequence (Q07011 24-186 K114E/C121S) above, with E91K, I109V counted along it

[20] = biological target: T20, human CD137-ECD-C121S-Fc mutant R130H (human, UniProt Q07011 24-186); assay: as above
T20 construct: not shown: Fc part
T20 sequence (Q07011 24-186 C121S/R130H): as the sequence (Q07011 24-186 K114E/C121S) above, with E91K, R107H counted along it

[21] = biological target: T21, human CD137-ECD-C121S-Fc mutant R130A (human, UniProt Q07011 24-186); assay: as above
T21 construct: not shown: Fc part
T21 sequence (Q07011 24-186 C121S/R130A): as the sequence (Q07011 24-186 K114E/C121S) above, with E91K, R107A counted along it

[22] = biological target: T10, human CD137-ECD-C121S-Fc mutant K115Q; assay: as above; remark: listed apart in the source
[23] = biological target: T22, human CD137-ECD-C121S-Fc mutant R134Q (human, UniProt Q07011 24-186); assay: as above
T22 construct: not shown: Fc part
T22 sequence (Q07011 24-186 C121S/R134Q): as the sequence (Q07011 24-186 K114E/C121S) above, with E91K, R111Q counted along it

[24] = biological target: T12, human CD137-ECD-C121S-Fc mutant N42S; assay: point ELISA on coated CD137-Fc mutant; % of binding relative to wild-type hCD137

T1 sequence (A9YYE7 entry or part of it): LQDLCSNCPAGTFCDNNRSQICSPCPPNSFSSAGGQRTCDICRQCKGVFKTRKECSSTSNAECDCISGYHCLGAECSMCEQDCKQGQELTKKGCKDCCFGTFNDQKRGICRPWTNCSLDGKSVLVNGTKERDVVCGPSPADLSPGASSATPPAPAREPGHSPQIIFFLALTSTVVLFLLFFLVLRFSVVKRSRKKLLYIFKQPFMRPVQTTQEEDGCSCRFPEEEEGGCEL

Row | Binder | MFI ratio [1] | max activity, NF-kappaB luciferase reporter [2] | Kd [3] | koff [3] | kon [3] | % of binding relative to wild-type hCD137 [4] | % of binding relative to wild-type hCD137 [5] | % of binding relative to wild-type hCD137 [6] | % of binding relative to wild-type hCD137 [7] | % of binding relative to wild-type hCD137 [8] | % of binding relative to wild-type hCD137 [9] | % of binding relative to wild-type hCD137 [10] | % of binding relative to wild-type hCD137 [12] | % of binding relative to wild-type hCD137 [13] | % of binding relative to wild-type hCD137 [14] | % of binding relative to wild-type hCD137 [15] | % of binding relative to wild-type hCD137 [16] | EC50 [17] | also measured
1 | PF83 (antibody, V domains shown, Comparator anti-CD137 antibody, previously described in U.S. Pat. No. 8,337,850) VH: EVQLVQSGAEVKKPGESLRISCKGSGYSFSTYWISWVRQMPGKGLEWMGKIYPGDSYTNYSPSFQGQVTISADKSISTAYLQWSSLKASDTAMYYCARGYGIFDYWGQGTLVTVSS VL: SYELTQPPSVSVSPGQTASITCSGDNIGDQYAHWYQQKPGQSPVLVIYQDKNRPSGIPERFSGSNSGNTATLTISGTQAMDEADYYCATYTGFGSLAVFGGGTKLTVLG | 37 | – | – | – | – | – | – | – | – | – | – | – | – | – | – | – | – | – | –
2 | Antibody A1 (antibody, human IgG1, kappa, Full length form; IgG1 Fc-null, kappa) heavy: not shown light: AIRMTQSPPSLSASVGDRVTITCQASQDIGNSLGWYQQKPGKAPKLVIFDASDLETGVPSRFSGSGSGTDFSLTISSLQPEDFATYYCQQGNSFPLTFGQGTRLEIKRTVAAPSVFIFPPSDEQLKSGTASVVCLLNNFYPREAKVQWKVDNALQSGNSQESVTEQDSKDSTYSLSSTLTLSKADYEKHKVYACEVTHQGLSSPVTKSFNRGEC | – | 63.4% | 3.33 nM | 0.00536 s⁻¹ | 1.61e+06 M⁻¹ s⁻¹ | – | – | – | – | – | – | – | – | – | – | – | – | – | –
3 | Antibody A2 (antibody, human IgG1, kappa, Form lacking the N-terminal alanine of the light chain; IgG1 Fc-null, kappa) heavy: not shown light: IRMTQSPPSLSASVGDRVTITCQASQDIGNSLGWYQQKPGKAPKLVIFDASDLETGVPSRFSGSGSGTDFSLTISSLQPEDFATYYCQQGNSFPLTFGQGTRLEIKRTVAAPSVFIFPPSDEQLKSGTASVVCLLNNFYPREAKVQWKVDNALQSGNSQESVTEQDSKDSTYSLSSTLTLSKADYEKHKVYACEVTHQGLSSPVTKSFNRGEC | – | 72.3% | 5.36 nM | 0.00713 s⁻¹ | 1.33e+06 M⁻¹ s⁻¹ | – | – | – | – | – | – | – | – | – | – | – | – | – | –
4 | Antibody A1/2 (antibody, human IgG1, kappa, Human IgG1 Fc-null, kappa; also called Antibody 1/2) heavy: not shown light: IRMTQSPPSLSASVGDRVTITCQASQDIGNSLGWYQQKPGKAPKLVIFDASDLETGVPSRFSGSGSGTDFSLTISSLQPEDFATYYCQQGNSFPLTFGQGTRLEIKRTVAAPSVFIFPPSDEQLKSGTASVVCLLNNFYPREAKVQWKVDNALQSGNSQESVTEQDSKDSTYSLSSTLTLSKADYEKHKVYACEVTHQGLSSPVTKSFNRGEC | 153 | – | 4.67 nM | 0.00711 s⁻¹ | 1.52e+06 M⁻¹ s⁻¹ | 20% | 100% | 15% | 100% | 100% | 25% | 100% | 100% | 100% | 100% | 100% | 85% | 1.4 nM | EC50 (FcγRIIa(H)): > 134 nM; EC50 (FcγRI): > 5 nM; EC50 (FcγRIIb): > 134 nM; EC50 (FcγRIIIa(F)): > 134 nM; EC50 (FcγRIIIa(V)): > 134 nM; % of binding relative to wild-type hCD137 [11]: 100%; EC50 (Human C1q): > 330 nM; EC50 [18]: 0.027 nM; % of binding relative to wild-type hCD137 [19]: 100%; % of binding relative to wild-type hCD137 [20]: 100%; % of binding relative to wild-type hCD137 [21]: 100%; % of binding relative to wild-type hCD137 [22]: 25%; % of binding relative to wild-type hCD137 [23]: 100%
5 | BMS20H4.9 (antibody, human IgG4 S228P, kappa, V domains shown, Comparator anti-CD137 antibody, previously described in U.S. Pat. No. 7,288,638) VH: QVQLQQWGAGLLKPSETLSLTCAVYGGSFSGYYWSWIRQSPEKGLEWIGEINHGGYVTYNPSLESRVTISVDTSKNQFSLKLSSVTAADTAVYYCARDYGPGNYDWYFDLWGRGTLVTVSS VL: EIVLTQSPATLSLSPGERATLSCRASQSVSSYLAWYQQKPGQAPRLLIYDASNRATGIPARFSGSGSGTDFTLTISSLEPEDFAVYYCQQRSNWPPALTFGGGTKVEIKR | – | 115% | – | – | – | 100% | 100% | 100% | 100% | 100% | 100% | 100% | 100% | 100% | 85% | 100% | 100% | 0.43 nM | binding result [24]: no binding
